Results published in patent US20240150465A1 (Chugai, published 2024).

T1: human DLL3 (delta-like protein 3 isoform 1 precursor) expressed on Ba/F3 cells (human, UniProt Q9NYJ7 27-618)
T1 construct: Full-length cDNA stably transfected into mouse Ba/F3 cells; also called human DLL3 expressing Ba/F3
T1 sequence: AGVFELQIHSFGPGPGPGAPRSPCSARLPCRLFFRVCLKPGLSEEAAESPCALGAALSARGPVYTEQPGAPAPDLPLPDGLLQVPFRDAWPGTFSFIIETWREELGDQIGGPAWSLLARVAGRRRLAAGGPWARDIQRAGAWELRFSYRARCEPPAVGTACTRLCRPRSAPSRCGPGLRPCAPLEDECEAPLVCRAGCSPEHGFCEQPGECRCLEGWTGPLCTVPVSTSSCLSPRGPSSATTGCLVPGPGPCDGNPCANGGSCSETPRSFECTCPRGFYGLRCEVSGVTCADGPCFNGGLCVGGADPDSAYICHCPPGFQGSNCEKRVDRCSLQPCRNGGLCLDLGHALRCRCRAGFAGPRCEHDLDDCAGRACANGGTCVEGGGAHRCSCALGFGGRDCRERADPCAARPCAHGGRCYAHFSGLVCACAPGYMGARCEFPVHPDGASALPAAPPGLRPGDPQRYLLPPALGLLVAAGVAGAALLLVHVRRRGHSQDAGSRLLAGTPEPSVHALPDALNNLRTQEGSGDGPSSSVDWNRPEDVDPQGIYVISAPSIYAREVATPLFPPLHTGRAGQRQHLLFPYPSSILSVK

T2: del0
T2 construct: also called human DLL3 ECD with Flag-tag on C-terminus
T2 chain: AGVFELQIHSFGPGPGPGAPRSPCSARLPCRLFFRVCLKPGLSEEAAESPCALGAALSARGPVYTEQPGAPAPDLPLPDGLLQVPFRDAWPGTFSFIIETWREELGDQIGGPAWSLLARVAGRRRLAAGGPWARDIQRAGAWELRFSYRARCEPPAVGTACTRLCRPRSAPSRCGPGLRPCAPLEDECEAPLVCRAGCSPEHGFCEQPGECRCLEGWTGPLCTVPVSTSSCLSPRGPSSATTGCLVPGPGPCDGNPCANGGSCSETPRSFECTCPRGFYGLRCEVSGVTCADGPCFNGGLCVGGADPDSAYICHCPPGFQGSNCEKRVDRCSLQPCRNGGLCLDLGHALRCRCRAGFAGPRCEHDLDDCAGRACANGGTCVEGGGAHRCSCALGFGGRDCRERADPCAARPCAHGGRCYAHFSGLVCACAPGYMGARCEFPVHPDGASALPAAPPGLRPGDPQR

T3: del5
T3 construct: also called truncated human DLL3 ECD variant with Flag-tag on C-terminus
T3 chain: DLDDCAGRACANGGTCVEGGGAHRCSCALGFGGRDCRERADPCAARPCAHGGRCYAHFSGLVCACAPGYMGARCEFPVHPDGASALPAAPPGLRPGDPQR

T4: del6
T4 construct: also called truncated human DLL3 ECD variant with Flag-tag on C-terminus
T4 chain: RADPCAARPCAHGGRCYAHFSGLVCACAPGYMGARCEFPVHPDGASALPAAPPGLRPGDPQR

T5: human DLL3 on the surface of cancer cell lines SK-MEL 30, NCI-H1436 and NCI-H2227 (human, UniProt Q9NYJ7 27-618)
T5 construct: whole, on cells; Endogenous protein of human cancer cell lines
T5 sequence (looked up): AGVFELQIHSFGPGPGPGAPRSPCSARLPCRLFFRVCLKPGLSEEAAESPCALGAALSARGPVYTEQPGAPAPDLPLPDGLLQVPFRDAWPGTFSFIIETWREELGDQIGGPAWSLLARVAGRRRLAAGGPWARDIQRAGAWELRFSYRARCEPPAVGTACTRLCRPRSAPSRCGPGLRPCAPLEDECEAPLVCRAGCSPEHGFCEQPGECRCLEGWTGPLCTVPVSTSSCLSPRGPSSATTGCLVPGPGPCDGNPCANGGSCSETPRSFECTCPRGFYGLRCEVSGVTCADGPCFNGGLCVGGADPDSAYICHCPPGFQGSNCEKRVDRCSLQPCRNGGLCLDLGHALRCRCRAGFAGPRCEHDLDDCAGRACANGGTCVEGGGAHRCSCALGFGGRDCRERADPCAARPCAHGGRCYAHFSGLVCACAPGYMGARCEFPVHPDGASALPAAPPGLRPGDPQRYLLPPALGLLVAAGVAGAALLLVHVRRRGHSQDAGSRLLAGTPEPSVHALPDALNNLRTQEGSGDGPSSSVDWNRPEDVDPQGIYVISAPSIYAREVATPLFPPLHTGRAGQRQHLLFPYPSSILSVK


Legend:
[1] = target: T1, human DLL3 (delta-like protein 3 …); assay: cell ELISA, B-cell culture supernatants on immobilized hDLL3/BaF_H3 cells
Method: ELISA screening was conducted to test specificity of antibodies in B-cell culture supernatants. Human DLL3 expressing Ba/F3 (hDLL3/BaF_H3 established in Example 2, 2.5×10⁴ cells) were immobilized onto a Nunc MaxiSorp 384-well plate (Sigma-Aldrich) which was pre-coated with BSA (Sigma-Aldrich) and SUNBRIGHT (registered trademark) OE-080CS as Biocompatible Anchor for cell Membrane (YUKA SANGYO). Immobilized cells were incubated with 20 microliters (micro L) of B-cell culture supernatants for 1 hour. The supernatants were aspirated and the cells were washed with HEPES buffer (0.02 M HEPES, 5 mM KCl, 4 mM NaHCO₃, 138 mM NaCl, 2 mM CaCl₂, 5 mM Glucose, 0.4 mM KH₂PO₄, 0.34 mM Na₂HPO₄° and 0.1% BSA). After washing, goat anti-rabbit IgG polyclonal antibody HRP conjugate (BETHYL, A120-111P) was added. The cells were further incubated on ice for 1 hour and washed. Then, ABTS Microwell Peroxidase Substrate (Kirkegaard & Perry Laboratories) was added and OD405 was analyzed with […]ax 384 (Molecular Devices).

del0 = target: T2, del0; assay: ELISA with the human DLL3 ECD fragment proteins del0 to del6, OD405
Method: (§1) Nunc MaxiSorp 384-well plates (Sigma-Aldrich) were coated with each of the human DLL3 ECD fragment proteins del0 to del6, and blocked with 20% Blocking One (NACALAI TESQUE). Blocking buffer was removed and recombinant anti-DLL3 antibodies were incubated with the immobilized proteins for 1 hour at room temperature and washed with HEPES buffer (0.05% Tween20, HEPES). Monoclonal ANTI-FLAG M2-Peroxidase, Clone M2 (Sigma-Aldrich) was then added and incubated for 1 hour at room temperature and washed. Then, ABTS Microwell Peroxidase Substrate (Kirkegaard & Perry Laboratories) was added and OD405 was analyzed with […]ax 384 (Molecular Devices).

del5 = target: T3, del5; assay: as above
Method: as §1

del6 = target: T4, del6; assay: as above
Method: as §1

[2] = target: T5, human DLL3 on the surface of cancer …; assay: flow cytometry on SK-MEL-30 cells, 20 micro g/mL antibody, FITC-labeled goat anti-rabbit IgG [A]
Method: The cancer cells (5×10⁵ cells) were washed with 0.5% BSA-supplemented CellWASH (BD Bioscience) (hereinafter referred to as FACS/PBS). Bivalent anti-DLL3 antibody (DLA0316-rbIgG) or the control antibody (rabbit IgG) was added at a final concentration of 20 micro g/mL in a 50 micro L solution. After being left to stand at 4 degrees C. for 30 to 60 minutes, the cells were washed with FACS/PBS, and an FITC-labeled goat anti-rabbit IgG antibody diluted 50-fold with FACS/PBS was added to the cells. After being left to stand at 4 degrees C. for further 30 minutes, the cells were washed with FACS/PBS, and analyzed by FACS Verse (Becton Dickinson).

| Binder | binding result [1] | binding result (del0) | binding result (del5) | binding result (del6) | binding result [2] |
| --- | --- | --- | --- | --- | --- |
| DLA0841 (antibody, human IgG1, V domains shown, Rabbit B-cell clone, screened as B-cell culture supernatant) VH: QEQLVESGGGLVQPEGSLTLTCTASGFSFSSSYDMCWVRQAPGKGPEWIACIYTGDGSTDYASWAKGRFTVSKASSTTVTLQMTSLAVADTATYFCARNSGYGYFGLWGPGTLVTVSS VL: QVLTQTPSPVSAAVGGTVTISCQSTESVYGSDWLSWYQQKPGQPPKVLIYQASNLEIGVPSRFKGSGSGTQFTLTISGAQCDDAATYYCQGYYSGYIYAFGGGTEVVVK | binds | binds |  |  |  |
| DLA0580 (antibody, human IgG1, V domains shown, Rabbit B-cell clone, screened as B-cell culture supernatant) VH: QEQLVESGGGLVQPGASLTLTCKASGFDFTSNAMCWVRQAPGKGPEWIACIYNDDGSAYSASWAKGRFTVSKTSSTAVTLQVTGLTAADTATYFCARSPYYTYGGAPSAYASGYFNLWGPGTLVTVSS VL: DIVMTQTPASVEAAVGGTVTIKCQASENIYNSLAWYQQKPGQPPKLLMHDASVLTSGVPSRFSGSGYGTEFTLTISDLECADAATYYCQSDYYSTGGSYGFAFGGGTEVVVK | binds | binds | no binding | no binding |  |
| DLA0106 (antibody, human IgG1, V domains shown, Rabbit B-cell clone, screened as B-cell culture supernatant) VH: QSVEESGGRLVTPGTPLTLTCTVSGIDLSSYAMSWVRQAPGKGLEWIGIISNSGSGFYANWAKGRFTISKTSSTTVDVKISSPTTEDTATYFCARVFDADSSGYYYYGMDPWGPGTLVTVSS VL: DVVMTQTPSSVSEPVGGTVTIKCQASEDIESYLAWYQQKPGQPPKLLIYAASTLASGVSSRFRGSGSGTEYTLTISDLECADAATYYCQSTYYDSSGVDWAFGGGTEVVVK | binds | binds | no binding | no binding |  |
| DLA0769 (antibody, human IgG1, V domains shown, Rabbit B-cell clone, screened as B-cell culture supernatant) VH: QEQLVESGGGLVQPEGSLTLTCTASGFSFSSSGYMCWVRQAPGKGLEWIACISGGSSGDTDYANWAKGRFSISKTSSTTVTLQMTSLTVADTATYFCARDVYIDSTIFNFNLWGPGTLVTVSS VL: QVLTQTPSPVSAAVGGTVTISCQASQSVYNNNNLAWYQQKPGQPPKLLIYAASSLASGVPSRFKGSGAGTQFTLTISDLECDDAATYYCQGTYYSSGWYSTFGGGTEVVVK | binds | binds |  |  |  |

Results, then the binder that gave them:

| binding result [1] | binding result (del0) | binding result (del5) | binding result (del6) | binding result [2] | Binder |
| --- | --- | --- | --- | --- | --- |
| binds | binds | no binding | no binding |  | DLA0126 (antibody, human IgG1, V domains shown, Rabbit B-cell clone, screened as B-cell culture supernatant) VH: QSVEESGGRLVTPGTPLTLTCTVSGFSLSRYAMSWVRQAPGKGLEWIGIITGGGDPYYASWAKGRFTISKTSTTMDLKITSPTTEDTATYFCARMIGSEYASSSEYYDAFDPWGPGTLVTVSS VL: ALVMTQTPSSVSAAVGGTVTINCQASQNIYSNLAWYQQKPGQRPKLLIYGASNLESGVPSRFKGSGSGTEYTLTISDLECDDAAIYYCQSAYYTTSVDVLYPFGGGTEVVVK |
| binds | binds |  |  |  | DLA0641 (antibody, human IgG1, V domains shown, Rabbit B-cell clone, screened as B-cell culture supernatant) VH: QEQLVESGGGLVQPGASLTLTCKASGFSFNTSYCPCWVRQVPGKGPEWIACIDAGYSGATWYANWAKGRFTISKTSSTTVTLQMTSLTGADTATYFCVRCDAAGSGAFNLWGPGTLVTVSS VL: AYDMTQTPASVEVPVGGTVTIKCQASQSIYSYLSWYQQKPGQPPKLLIYEASKLTSGVPSRFSGSGSGTEFTLTISGVQCDDAATYYCQQGSGYMDVDNVFGGGTEVVVK |
| binds | binds |  |  |  | DLA0316 (antibody, human IgG1, V domains shown, Rabbit B-cell clone, screened as B-cell culture supernatant) VH: QEQLVESGGGLVQPGGSLKLSCKVSGFDFSNYGVSWVRQAPGKGLEWIGYIDPAFGRTYYASWVNGRFTISSHNAQNTLYLQLNSLTAADTATYFCVRVALVVAGVAYYGMDVWGPGTLVTVSS VL: DVVMTQTPASVEAAVGGTVTINCQASQNIYSYLSWYQQKPGQPPKLLIYRTSTLASGVPSRFKGSGSGTQFTLTISDLECADAATYYCQSYYYSSGSSYGAFAFGGGTEVVVK |
|  |  |  |  | binds | DLA0316-rbIgG (antibody, V domains shown, also called bivalent DLA0316; Bivalent anti-DLL3 antibody) VH: QEQLVESGGGLVQPGGSLKLSCKVSGFDFSNYGVSWVRQAPGKGLEWIGYIDPAFGRTYYASWVNGRFTISSHNAQNTLYLQLNSLTAADTATYFCVRVALVVAGVAYYGMDVWGPGTLVTVSS VL: DVVMTQTPASVEAAVGGTVTINCQASQNIYSYLSWYQQKPGQPPKLLIYRTSTLASGVPSRFKGSGSGTQFTLTISDLECADAATYYCQSYYYSSGSSYGAFAFGGGTEVVVK |
